Data from US20190055314A1 (ADAGENE, published 2019).

Molecular target: T1, human CD137 ligand (human, UniProt P41273 71-254, limits assumed, biotinylated in Example 6)
T1 construct: also called HuCD137L; biotinylated CD137L
Assay: flow cytometry

T1 sequence (P41273 71-254 limits assumed): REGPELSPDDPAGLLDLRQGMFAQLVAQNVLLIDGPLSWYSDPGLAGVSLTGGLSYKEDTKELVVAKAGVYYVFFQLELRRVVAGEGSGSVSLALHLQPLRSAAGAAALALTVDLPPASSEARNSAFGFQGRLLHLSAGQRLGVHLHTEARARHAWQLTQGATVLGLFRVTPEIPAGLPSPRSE

binding result: no binding
B1: full-length mouse CD137 on the cell surface (receptor)
chain: VQNSCDNCQPGTFCRKYNPVCKSCPPSTFSSIGGQPNCNICRVCAGYFRFKKFCSSTHNAECECIEGFHCLGPQCTRCEKDCRPGQELTKQGCKTCSLGTFNDQNGTGVCRPWTNCSLDGRSVLKTGTTEKDVVCGPPVVSFSPSTTISVTPEGG
